Source: patent US11390894B2, “Biological processes for the production of aryl sulfates” (CysBio ApS, priority 2014, dated 2022)

How the values were obtained:
tyrosine [1] = assay: pHCA and zosteric acid in culture media of E. coli expressing an aryl sulfotransferase in combination with a tyrosine ammonia lyase; type: cell-based, Escherichia coli; settings: M9 glucose, 0.1 mM IPTG, no substrate added
Experimental: (§1) The concentration of p-courmaric acid (pHCA) and zosteric acid in the supernatant was quantified by high performance (HPLC) and compared to chemical standards. HPLC was done on a Thermo setup using a HS-F5 column and mobile phases: 5 mM ammonium formate pH 4.0 (A) and acetonitrile (B) at 1.5 mL min-1, using a gradient elution starting at 5% B. From 0.5 min after injection to 7 min, the fraction of B increased linearly from 5% to 60%, and between 9.5 min and 9.6 the fraction of B decreased back to 5%, and remaining there until 12 min. pHCA and zosteric acid were quantified by measuring absorbance at 277 nm.
The enzyme RmXAL from Rhodotorula mucilaginosa/Rhodotorula rubra (SEQ ID NO: 20) has tyrosine ammonia lyase activity, thus catalyzing the non-oxidative deamination of the amino acid tyrosine, releasing p-coumaric acid (pHCA) and ammonia. The gene encoding RmXAL was codon optimized using standard algorithms for expression in E. coli available by GeneArt (Life Technologies) and amplified by PCR using the primers shown in table 5 and inserted into the pCDFDuet-1 vector (Novagen/Life Technologies), which had been digested by the restriction enzymes NdeI and BgIII, using Gibson reaction (New England Biolabs). FIG. 4 provides an image of the plasmid expressing RmXAL.
The resulting plasmid was co-transformed into E. coli BL21(DE3)pLysS cells (Life Technologies) alone or together with the plasmid expressing SULT1A1 from Homo sapiens (example 1). The resulting strains was grown in M9 media with glucose as a carbon source, with 0.1 mM IPTG for induction of gene expression. Samples were taken as described previously (example 1) for analysis of product formation. […] RmXAL allowed the production of pHCA without addition of any substrate, thus providing a heterologous pathway from the cells normal metabolism to a heterologous product. The additional expression of an aryl sulfotransferase, exemplified by SULT1A1 from Homo sapiens, allowed the in vivo conversion of pHCA to zosteric acid. Thus, an aryl sulfotransferase can act upon a compound produced in vivo and the cells can release the resulting sulfated product to the medium.

tyrosine [2] = assay: In vivo supply of p-coumaric acid by tyrosine ammonia-lyases co-expressed with SULT1A1 rat in E. coli; type: cell-based, Escherichia coli; settings: M9 0.2% glucose, 2 mM tyrosine, 1 mM IPTG, overnight 37° C., supernatant
Experimental: as §1
The genes encoding the tyrosine ammonia-lyases RcTAL (from Rhodobacter capsulatus; SEQ ID NO: 48), RsTAL (from Rhodobacter sphaeroides; SEQ ID NO: 17) and FjTAL (from Flavobacterium johnsoniae; SEQ ID NO: 14) were cloned into expression vectors as follows. Genes (SEQ ID NO: 49, 50, and 51, respectively) were optimized for E. coli and synthesized by GeneArt, amplified by PCR using the oligonucleotides shown in the table below, and cloned into pCDFDuet-1 (Novagen): The plasmid was digested with NdeI and BgIII and gel purified. The genes were inserted by isothermal assembly using Gibson Assembly Master Mix (New England Biolabs), and transformed into chemically competent DH5a (laboratory strain) or NEB5α (New England Biolabs), selecting for resistance to 50 μg mL^−1 spectinomycin in LB medium. Resulting plasmids pCBJ215 (RsTAL), pCBJ228 (FjTAL) and pCBJ297 (RcTAL) (FIGS. 6 to 8, respectively) were co-transformed by electroporation into the E. coli expression strain BL21(DE3) (Invitrogen/Life Technologies) together with a pETDuet-1-based plasmid expressing SULT1A1 from rat (Example 1). Transformation cultures were plated on LB containing 50 μg mL^−1 spectinomycin and 100 μg mL^−1 ampicillin. A control strain carrying pCDFDuet-1 was also made.
Strains harboring recombinant plasmids were pre-cultured in 2×YT liquid medium with 100 μg mL^−1 ampicillin and 50 μg mL^−1 spectinomycin and incubated at 37° C. and 250 rpm overnight. The following day, each pre-culture was transferred into 5 ml of M9 minimal medium with 0.2% glucose, 2 mM tyrosine and 1 mM IPTG for induction of expression. Cultures were placed in an incubator at 37° C. with shaking at 250 rpm overnight. The supernatants were then collected by centrifugation twice and applied to HPLC analysis as described in example 1, and the titers of p-coumaric acid (pHCA) and zosteric acid (ZA) were quantified using chemical standards and are presented in the table below.

Molecule	Zosteric acid formed (tyrosine [1])	pHCA (tyrosine [1]) [mM]	μM ZA (tyrosine [2]) [µM]	μM pHCA (tyrosine [2]) [μM]
RmXAL: enzyme from Rhodotorula mucilaginosa/Rhodotorula rubra with tyrosine ammonia lyase activity (protein, listed as Rhodotorula mucilaginosa) MAPSVDSIATSVANSLSNGLHAAAAANGGDVHKKTAGAGSLLPTTETTQLDIVERILADAGATDQIKLDGYTLTLGDVVGAARRGRSVKVADSPHIREKIDASVEFLRTQLDNSVYGVTTGFGGSADTRTEDAISLQKALLEHQLCGVLPTSMDGFALGRGLENSLPLEVVRGAMTIRVNSLTRGHSAVRIVVLEALTNFLNHGITPIVPLRGTISASGDLSPLSYIAASITGHPDSKVHVDGKIMSAQEAIALKGLQPVVLGPKEGLGLVNGTAVSASMATLALTDAHVLSLLAQALTALTVEAMVGHAGSFHPFLHDVTRPHPTQIEVARNIRTLLEGSKYAVHHETEVKVKDDEGILRQDRYPLRCSPQWLGPLVSDMIHAHAVLSLEAGQSTTDNPLIDLENKMTHHGGAFMASSVGNTMEKTRLAVALMGKVSFTQLTEMLNAGMNRALPSCLAAEDPSLSYHCKGLDIAAAAYTSELGHLANPVSTHVQPAEMGNQAINSLALISARRTAEANDVLSLLLATHLYCVLQAVDLRAMEFEHTKAFEPMVTELLKQHFGALATAEVEDKVRKSIYKRLQQNNSYDLEQRWHDTFSVATGAVVEALAGQEVSLASLNAWKVACAEKAIALTRSVRDSFWAAPSSSSPALKYLSPRTRVLYSFVREEVGVKARRGDVYLGKQEVTIGTNVSRIYEAIKSGCIAPVLVKMMA	Not detectable	0.04		
SULT1A1 Homo sapiens, RmXAL: SULT1A1 from Homo sapiens co-expressed with tyrosine ammonia lyase RmXAL in E. coli (protein, UniProt P50225 1-295, looked up, co-expressed with RmXAL, SULT1A1 from Homo sapiens co-expressed with tyrosine ammonia lyase RmXAL in E. coli) Sulfotransferase 1A1: MELIQDTSRPPLEYVKGVPLIKYFAEALGPLQSFQARPDDLLISTYPKSGTTWVSQILDMIYQGGDLEKCHRAPIFMRVPFLEFKAPGIPSGMETLKDTPAPRLLKTHLPLALLPQTLLDQKVKVVYVARNAKDVAVSYYHFYHMAKVHPEPGTWDSFLEKFMVGEVSYGSWYQHVQEWWELSRTHPVLYLFYEDMKENPKREIQKILEFVGRSLPEETVDFVVQHTSFKEMKKNPMTNYTTVPQEFMDHSISPFMRKGMAGDWKTTFTVAQNERFDADYAEKMAGCSLSFRSEL	0.01 mM	0.02		
RsTAL: tyrosine ammonia-lyase from Rhodobacter sphaeroides (protein, Rhodobacter sphaeroides) MLAMSPPKPAVELDRHIDLDEAHSVASGGARIVLAPPARDRCRASEARLGAVIREARHVYGLTTGFGPLANRLVSGENVRTLQANLVHHLASGVGPVLDWTTARAMVLARLVAIAQGASGASEGTIARLIDLLNSELAPAVPMRGTVGASGDLTPLAHMVLCLQGRGDFLDRDGTRLDGAEGLRRGRLQPLDLSHRDALALVNGTSAMTGIALVNAHACRHLGNWAVALTALLAECLGGRTEAWAAALSDLRPHPGQKDAAARLRARVDGSARVVRHVIAERRLGASDIGTEPEAGQDAYSLRCAPQVLGAGFDTLAWHDRVLTIELNAVTDNPVFPPDGSVPALHGGNFMGQHVALTSDALATAVTVLAGLAERQIARLTDERLNRGLPPFLHRGPAGLNSGFMGAQVTATALLAEMRATGPASIHSISTNAANQDVVSLGTIAARLCREKIDRWAEILAILALCLAQAAELRCGSGLDGVSPAGKKLVQALREQFPPLETDRPLGQEIAALATHLLQQSPV			<1	78
RcTAL: tyrosine ammonia-lyase from Rhodobacter capsulatus (protein, listed as Rhodobacter capsulatus) MLDATIGRKRMTLQSQTAKDCLALDGALTLVQCEAIATHRSRISVTPALRERCARAHARLEHAIAEQRHIYGITTGFGPLANRLIGADQGAELQQNLIYHLATGVGPKLSWAEARALMLARLNSILQGASGASPETIDRIVAVLNAGFAPEVPAQGTVGASGDLTPLAHMVLALQGRGRMIDPSGRVQEAGAVMDRLCGGPLTLAARDGLALVNGTSAMTAIAALTGVEAARAIDAALRHSAVLMEVLSGHAEAWHPAFAELRPHPGQLRATERLAQALDGAGRVCRTLTAARRLTAADLRPEDHPAQDAYSLRVVPQLVGAVWDTLDWHDRVVTCELNSVTDNPIFPEGCAVPALHGGNFMGVHVALASDALNAALVTLAGLVERQIARLTDEKLNKGLPAFLHGGQAGLQSGFMGAQVTATALLAEMRANATPVSVQSLSTNGANQDVVSMGTIAARRARAQLLPLSQIQAILALALAQAMDLLDDPEGQAGWSLTARDLRDRIRAVSPGLRADRPLAGDIEAVAQGLRHPSAADPPA			<1	20
FjTAL: tyrosine ammonia-lyase from Flavobacterium johnsoniae (protein, listed as Flavobacterium johnsoniae) MNTINEYLSLEEFEAIIFGNQKVTISDVVVNRVNESFNFLKEFSGNKVIYGVNTGFGPMAQYRIKESDQIQLQYNLIRSHSSGTGKPLSPVCAKAAILARLNTLSLGNSGVHPSVINLMSELINKDITPLIFEHGGVGASGDLVQLSHLALVLIGEGEVFYKGERRPTPEVFEIEGLKPIQVEIREGLALINGTSVMTGIGVVNVYHAKKLLDWSLKSSCAINELVQAYDDHFSAELNQTKRHKGQQEIALKMRQNLSDSTLIRKREDHLYSGENTEEIFKEKVQEYYSLRCVPQILGPVLETINNVASILEDEFNSANDNPIIDVKNQHVYHGGNFHGDYISLEMDKLKIVITKLTMLAERQLNYLLNSKINELLPPFVNLGTLGFNFGMQGVQFTATSTTAESQMLSNPMYVHSIPNNNDNQDIVSMGTNSAVITSKVIENAFEVLAIEMITIVQAIDYLGQKDKISSVSKKWYDEIRNIIPTFKEDQVMYPFVQKVKDHLINN			16	398
